Reference: paper PMC12544700, “Identification of a Small Secretoneurin Derivative That Inhibits CaMKIIδ Activity” (Journal of Cellular and Molecular Medicine, 2025)

Assays:
CaMKIIδ (Homo sapiens) = CaMKIIδ (Homo sapiens) (UniProt Q13557); settings: cited from earlier work
[1] = molecular target: biotinylated SN‐db‐short [SN (7–26, L17F, V20F)] (human); assay: SPR; Biacore X100, room temperature; biotin‐ahx‐SN‐db‐short immobilised on a streptavidin chip (58 RU); His‐CaMKIIδ‐T287D 0.06–1 μM injected, single‐cycle; HEPES running buffer with 2.5 mM Ca2+; 1:1 Langmuir fit; average of three experiments

Chain of CaMKIIδ (Homo sapiens) (Q13557 2-499, stated change not applied): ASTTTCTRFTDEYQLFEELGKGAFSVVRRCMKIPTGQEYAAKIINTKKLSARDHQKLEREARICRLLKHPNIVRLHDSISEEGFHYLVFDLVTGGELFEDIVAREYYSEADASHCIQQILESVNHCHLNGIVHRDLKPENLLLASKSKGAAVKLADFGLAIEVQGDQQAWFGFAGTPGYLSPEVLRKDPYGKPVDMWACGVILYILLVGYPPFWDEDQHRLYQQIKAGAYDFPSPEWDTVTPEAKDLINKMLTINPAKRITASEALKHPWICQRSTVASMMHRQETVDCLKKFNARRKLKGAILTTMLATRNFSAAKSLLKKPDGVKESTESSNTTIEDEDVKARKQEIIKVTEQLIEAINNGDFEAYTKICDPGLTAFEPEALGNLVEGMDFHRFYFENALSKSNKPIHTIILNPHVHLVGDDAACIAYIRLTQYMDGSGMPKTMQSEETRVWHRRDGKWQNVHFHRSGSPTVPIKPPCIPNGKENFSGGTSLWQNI
Chain of Secretoneurin (P13521 182-214): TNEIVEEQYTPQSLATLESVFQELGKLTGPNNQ

Substance | Kd (CaMKIIδ (Homo sapiens)) [nM] | Kd [1] [nM] | koff [1] [s⁻¹] | kon [1] [M⁻¹ s⁻¹]
Secretoneurin (from UniProt P13521) | 80 |  |  | 
recombinant His‐CaMKIIδ‐T287D (species not named for the experiment) (from UniProt P15791 1-533) (enzyme) |  | 68 | 0.00057 | 14000
